{
  "source": "patent US20210269546A1",
  "about": "(MOMENTA PHARMACEUTICALS, published 2021)",
  "binders": {"B1": {"name": "S1A-AA-Cyno (anti-Cyno CD38 mAb) (antibody, V domains shown)", "VH": "QLLESGGGLVQPGGSLRLSCAASGFTFDDYGMSWVRQAPGKGLEWVSDISWNGGKTHYVDSVKGQFTISRDNSKNTLYLQMNSLRAEDTAVYYCARGSLFHDSSGFYFGHWGQGTLVTVSS", "VL": "QSVLTQPPSASGTPGQRVTISCSGSSSNIGDNYVSWYQQLPGTAPKLLIYRDSQRPSGVPDRFSGSKSGTSASLAISGLRSEDEADYYCQSYDSSLSGSVFGGGTKLTVLG", "modifications": "VivoTag645 dye label in the flow cytometry assays", "notes": "Surrogate anti-CD38 human monoclonal IgG1 antibody; VivoTag645-labeled in flow cytometry; also called SIA-AA-Cyno; S1A-AA-Cyno CD38"}},
  "key": {"[1]": {"target": "T1, cynomolgus monkey CD38 (CHO cells stably expressing cyno CD38) (cynomolgus monkey, UniProt Q5VAN0 1-301)", "T1 construct": "whole, on cells", "T1 sequence (Q5VAN0 whole entry)": "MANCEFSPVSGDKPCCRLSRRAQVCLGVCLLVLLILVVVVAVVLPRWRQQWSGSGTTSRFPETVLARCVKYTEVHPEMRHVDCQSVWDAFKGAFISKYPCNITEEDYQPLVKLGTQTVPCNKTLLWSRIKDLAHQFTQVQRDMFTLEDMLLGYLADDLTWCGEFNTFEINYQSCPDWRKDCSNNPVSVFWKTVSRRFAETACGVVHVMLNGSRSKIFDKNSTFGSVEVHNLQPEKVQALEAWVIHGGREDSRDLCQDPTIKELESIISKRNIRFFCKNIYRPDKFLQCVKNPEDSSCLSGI", "test": "flow cytometry, VivoTag645-labeled, CHO cells stably expressing cyno CD38, 4 °C, 1 hour, gMFI", "method": "(§1) FIG. 26. […] Extent of cell surface binding was assessed by flow cytometry. […]"}, "[2]": {"target": "T2, human CD38 on the cell surface (Raji and other human tumor cell lines) (human, UniProt P28907 1-300)", "T2 construct": "whole, on cells; also called cell surface CD38", "test": "flow cytometry, VivoTag645-labeled, human CD38 expressing Raji tumor cells, 4 °C, 1 hour, gMFI", "method": "as §1"}},
  "data": [
    {"binder": "B1", "values": [
      {"measurement": "binding result", "setting": "[1]", "result": "binds"},
      {"measurement": "EC50 (read off the curve)", "setting": "[2]", "result": "~0.8", "unit": "nM"}
    ]}
  ]
}
